Target: T1, Arabidopsis TIR1 (Transport Inhibitor Response 1), coexpressed with AtASK1 (Arabidopsis, UniProt Q570C0 1-594; Q39255 1-160)
T1 construct: a TEV site stands between the tags and TIR1; ASK1 (AtASK1), Arabidopsis, coexpressed with TIR1; a TEV site stands between the tag and ASK1; that the sample is the TIR1-ASK1 complex is surmised from the coexpression; Cleavage with TEV is not mentioned; also called AtTIR1; His10-eGFP-FLAG-(TEV)-AtTIR1
T1 sequence (looked up) 1: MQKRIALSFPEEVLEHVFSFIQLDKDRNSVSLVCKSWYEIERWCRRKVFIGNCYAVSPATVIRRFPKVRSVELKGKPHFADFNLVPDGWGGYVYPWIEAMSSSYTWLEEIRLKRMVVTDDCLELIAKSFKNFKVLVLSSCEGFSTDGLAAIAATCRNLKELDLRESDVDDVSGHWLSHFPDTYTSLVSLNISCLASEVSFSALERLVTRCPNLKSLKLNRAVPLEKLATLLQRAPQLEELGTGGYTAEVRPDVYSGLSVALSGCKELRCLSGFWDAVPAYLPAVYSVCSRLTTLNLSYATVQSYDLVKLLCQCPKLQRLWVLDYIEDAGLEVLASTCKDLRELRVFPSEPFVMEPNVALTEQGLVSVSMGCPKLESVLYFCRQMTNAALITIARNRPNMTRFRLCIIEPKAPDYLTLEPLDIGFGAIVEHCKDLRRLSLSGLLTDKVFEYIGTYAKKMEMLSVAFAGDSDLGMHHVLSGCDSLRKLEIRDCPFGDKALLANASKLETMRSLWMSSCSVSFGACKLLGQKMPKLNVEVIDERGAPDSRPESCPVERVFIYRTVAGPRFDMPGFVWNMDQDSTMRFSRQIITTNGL
T1 sequence (looked up) 2: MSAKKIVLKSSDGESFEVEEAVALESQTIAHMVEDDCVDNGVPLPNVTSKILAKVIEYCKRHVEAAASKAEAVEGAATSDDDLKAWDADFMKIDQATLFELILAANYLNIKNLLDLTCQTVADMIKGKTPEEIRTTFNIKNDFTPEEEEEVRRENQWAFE
Test: NMR titration; 1H-15N HSQC of 15N-labeled AXR3 DI/DII with unlabeled TIR1 added, 1:3 ratio, 5 to 10 µM TIR1, 4 °C, 20 mM sodium phosphate pH 6.0, 150 mM NaCl, 3 mM EDTA, 10 mM DTT; loss of HN cross peak intensity; no auxin
Settings: both partners purified

- binding result: binds
B1: AXR3 DI/DII (N-terminal half of the Aux/IAA protein IAA17/AXR3, residues 1 to 101) (domain or fragment, UniProt P93830 1-101, looked up)
chain: MMGSVELNLRETELCLGLPGGDTVAPVTGNKRGFSETVDLKLNLNNEPANKEGSTTHDVVTFDSKEKSACPKDPAKPPAKAQVVGWPPVRSYRKNVMVSCQ
modifications: 15N isotopically labeled
notes: AXR3 (IAA17), Aux/IAA protein, domains I and II (DI/DII), residues 1 to 101, without the C-terminal PB1 domain; also called AXR3_(1-101); N-terminal half of AXR3; source: E. coli Rosetta DE3, minimal media with 15N ammonium chloride, purified (Co-NTA)

— publication PMC10556615 (Proceedings of the National Academy of Sciences of the …, 2023)
